Experimental data published in PMC9860449.

Experiments:
[1] = target: FUS released from 6xHis-MBP-FUS by TEV protease (UniProt P35637)
[2] = target: FUS^WT released from GST-TEV-FUS by TEV protease (UniProt P35637)
[3] = target: FUS^WT released from GST-TEV-FUS by TEV protease (UniProt P35637); remark: listed apart in the source

Substance | reduction of number and total area of preformed FUS:RNA droplets (1 μM FUS, 1 μM U40 RNA; 0.75 μM H1-H13, 2 h) [1] [%] | reduction of turbidity of preformed FUS fibrils after 80 min at the highest concentration of H1-H13 tested [2] [%] | FUS fibrillization left (normalised turbidity at 395 nm; 3 μM FUS, TEV protease) at the highest concentration of H1-H13 tested [3] [%] | reduction of number and total area of preformed FUS:RNA droplets (1 μM FUS, 1 μM U40 RNA; 0.75 μM Kapβ2, 2 h) [1] [%]
Kapβ2 H1-H13 (residues 1–604) (from UniProt Q92973-2 1-604) (domain or fragment) | 44 | 50 | 40 | 
Karyopherin-β2 (Kapβ2), full-length, wild type (from UniProt Q92973-2 1-890) (natural protein) |  |  |  | 100
